Assay results as given in patent publication US20220119446A1, “BIOMARKERS AND TREATMENT OF NEURONAL INJURY AND NEURODEGENERATION” (Board of Supervisons of Louisiana State University and …, priority 2018, published 2022).

System: β-catenin
Assay: TOP Flash/FOP flash luciferase reporter in hpRPE cells
Type: cell-based, human
Conditions: hpRPE cells undergoing UOS+/−NPD1
From the text: We tested whether or not Wnt5a activates […] using TOP Flash/FOP flash reporter system in hpRPE cells undergoing UOS+/−NPD1 (FIG. 1g).
Except TOP/FOP flash, the Luciferase activity can be standardized using a construct expressing GFP constitutively under CMV virus promoter. To assess luciferase activity, cell lysates can be obtained using Passive Lysis Buffer (Promega, Madison, Wis.) and mixed with a luciferase assay reagent (Promegam Madison, Wis.). Chemiluminescence produced by luciferase and fluorescence from GFP can be detected using Appliscan 2.3. Data can be analyzed using SkanIt 2.3 (Thermo Fisher Scientific, Waltham, Mass.).
Except TOP/FOP flash, the Luciferase activity was standardized using a construct expressing GFP constitutively under CMV virus promoter. To assess luciferase activity, cell lysates were obtained using Passive Lysis Buffer (Promega) and mixed with a luciferase assay reagent (Promega). Chemiluminescence produced by luciferase and fluorescence from GFP was detected using Appliscan 2.3. Data were analyzed using SkanIt 2.3 (Thermo Fisher Scientific).

B1: Wnt3a: recombinant protein, R&D systems 5036-WN; canonical Wnt ligand (protein, UniProt P56704 19-352, looked up)
Protein Wnt-3a: SYPIWWSLAVGPQYSSLGSQPILCASIPGLVPKQLRFCRNYVEIMPSVAEGIKIGIQECQHQFRGRRWNCTTVHDSLAIFGPVLDKATRESAFVHAIASAGVAFAVTRSCAEGTAAICGCSSRHQGSPGKGWKWGGCSEDIEFGGMVSREFADARENRPDARSAMNRHNNEAGRQAIASHMHLKCKCHGLSGSCEVKTCWWSQPDFRAIGDFLKDKYDSASEMVVEKHRESRGWVETLRPRYTYFKVPTERDLVYYEASPNFCEPNPETGSFGTRDRTCNVSSHGIDGCDLLCCGRGHNARAERRREKCRCVFHWCCYVSCQECTRVYDVHTCK
In the case of B1, the “β-catenin activity (luciferase)” value is reported as “rose almost twice”.
